Biological target: human XPD, wild type (XPD-FLAG) (human, UniProt P18074 1-760)
Assay: cell-based or functional assay

B1: human CDK activating kinase complex (CAK), wild type: MAT1 / CDK7-Strep / Cyclin H (complex)
chain 1: MDDQGCPRCKTTKYRNPSLKLMVNVCGHTLCESCVDLLFVRGAGNCPECGTPLRKSNFRVQLFEDPTVDKEVEIRKKVLKIYNKREEDFPSLREYNDFLEEVEEIVFNLTNNVDLDNTKKKMEIYQKENKDVIQKNKLKLTREQEELEEALEVERQENEQRRLFIQKEEQLQQILKRKNKQAFLDELESSDLPVALLLAQHKDRSTQLEMQLEKPKPVKPVTFSTGIKMGQHISLAPIHKLEEALYEYQPLQIETYGPHVPELEMLGRLGYLNHVRAASPQDLAGGYTSSLACHRALQDAFSGLFWQPS
chain 2: MALDVKSRAKRYEKLDFLGEGQFATVYKARDKNTNQIVAIKKIKLGHRSEAKDGINRTALREIKLLQELSHPNIIGLLDAFGHKSNISLVFDFMETDLEVIIKDNSLVLTPSHIKAYMLMTLQGLEYLHQHWILHRDLKPNNLLLDENGVLKLADFGLAKSFGSPNRAYTHQVVTRWYRAPELLFGARMYGVGVDMWAVGCILAELLLRVPFLPGDSDLDQLTRIFETLGTPTEEQWPDMCSLPDYVTFKSFPGIPLHHIFSAAGDDLLDLIQGLFLFNPCARITATQALKMKYFSNRPGPTPGCQLPRPNCPVETLKEQSNPALAIKRKRTEALEQGGLPKKLIF
chain 3: MYHNSSQKRHWTFSSEEQLARLRADANRKFRCKAVANGKVLPNDPVFLEPHEEMTLCKYYEKRLLEFCSVFKPAMPRSVVGTACMYFKRFYLNNSVMEYHPRIIMLTCAFLACKVDEFNVSSPQFVGNLRESPLGQEKALEQILEYELLLIQQLNFHLIVHNPYRPFEGFLIDLKTRYPILENPEILRKTADDFLNRIALTDAYLLYTPSQIALTAILSSASRAGITMESYLSESLMLKENRTCLSQLLDIMKSMRNLVKKYEPPRSEEVAVLKQKLERCHSAELALNVITKKRKGYEDDDYVSKKSKHEEEEWTDDDLVESL
- in vitro transcription of TFIIH reconstituted from rIIH6, CAK and XPD, % of wild type: 100%
